Bridge positions count the residues as written; N and C are the ends. Square brackets hold non-standard residues; d marks the D form. NEtAla = CCN[C@@H](C)C(=O)O
B1: Compound 70a (peptide)
peptide: {CH2CO}-LNFEDQSPDTWQPCG-NH2
modifications: thioether N-14
SMILES: CC(C)C[C@@H]1NC(=O)CSC[C@@H](C(=O)NCC(N)=O)NC(=O)[C@@H]2CCCN2C(=O)[C@H](CCC(N)=O)NC(=O)[C@H](Cc2c[nH]c3ccccc23)NC(=O)[C@H]([C@@H](C)O)NC(=O)[C@H](CC(=O)O)NC(=O)[C@@H]2CCCN2C(=O)[C@H](CO)NC(=O)[C@H](CCC(N)=O)NC(=O)[C@H](CC(=O)O)NC(=O)[C@H](CCC(=O)O)NC(=O)[C@H](Cc2ccccc2)NC(=O)[C@H](CC(N)=O)NC1=O
B2: Compound 82a (peptide)
peptide: {CH2CO}-FNFEDQSATTWQPCG-NH2
modifications: thioether N-14
SMILES: C[C@@H]1NC(=O)[C@H](CO)NC(=O)[C@H](CCC(N)=O)NC(=O)[C@H](CC(=O)O)NC(=O)[C@H](CCC(=O)O)NC(=O)[C@H](Cc2ccccc2)NC(=O)[C@H](CC(N)=O)NC(=O)[C@H](Cc2ccccc2)NC(=O)CSC[C@@H](C(=O)NCC(N)=O)NC(=O)[C@@H]2CCCN2C(=O)[C@H](CCC(N)=O)NC(=O)[C@H](Cc2c[nH]c3ccccc23)NC(=O)[C@H]([C@@H](C)O)NC(=O)[C@H]([C@@H](C)O)NC1=O
B3: Compound 77a (peptide)
peptide: {CH2CO}-FNFEDQSAATWQPCG-NH2
modifications: thioether N-14
SMILES: C[C@@H]1NC(=O)[C@H](C)NC(=O)[C@H](CO)NC(=O)[C@H](CCC(N)=O)NC(=O)[C@H](CC(=O)O)NC(=O)[C@H](CCC(=O)O)NC(=O)[C@H](Cc2ccccc2)NC(=O)[C@H](CC(N)=O)NC(=O)[C@H](Cc2ccccc2)NC(=O)CSC[C@@H](C(=O)NCC(N)=O)NC(=O)[C@@H]2CCCN2C(=O)[C@H](CCC(N)=O)NC(=O)[C@H](Cc2c[nH]c3ccccc23)NC(=O)[C@H]([C@@H](C)O)NC1=O
B4: Compound 80a (peptide)
peptide: {CH2CO}-FNFEDQSALTWQPCG-NH2
modifications: thioether N-14
SMILES: CC(C)C[C@@H]1NC(=O)[C@H](C)NC(=O)[C@H](CO)NC(=O)[C@H](CCC(N)=O)NC(=O)[C@H](CC(=O)O)NC(=O)[C@H](CCC(=O)O)NC(=O)[C@H](Cc2ccccc2)NC(=O)[C@H](CC(N)=O)NC(=O)[C@H](Cc2ccccc2)NC(=O)CSC[C@@H](C(=O)NCC(N)=O)NC(=O)[C@@H]2CCCN2C(=O)[C@H](CCC(N)=O)NC(=O)[C@H](Cc2c[nH]c3ccccc23)NC(=O)[C@H]([C@@H](C)O)NC1=O
B5: Compound 74a (peptide)
peptide: {CH2CO}-FNFEDQSAQTWQPCG-NH2
modifications: thioether N-14
SMILES: C[C@@H]1NC(=O)[C@H](CO)NC(=O)[C@H](CCC(N)=O)NC(=O)[C@H](CC(=O)O)NC(=O)[C@H](CCC(=O)O)NC(=O)[C@H](Cc2ccccc2)NC(=O)[C@H](CC(N)=O)NC(=O)[C@H](Cc2ccccc2)NC(=O)CSC[C@@H](C(=O)NCC(N)=O)NC(=O)[C@@H]2CCCN2C(=O)[C@H](CCC(N)=O)NC(=O)[C@H](Cc2c[nH]c3ccccc23)NC(=O)[C@H]([C@@H](C)O)NC(=O)[C@H](CCC(N)=O)NC1=O
B6: Compound 72a (peptide)
peptide: {CH2CO}-FNFEDQS[NEtAla]DTWQPCG-NH2
modifications: thioether N-14
SMILES: CCN1C(=O)[C@H](CO)NC(=O)[C@H](CCC(N)=O)NC(=O)[C@H](CC(=O)O)NC(=O)[C@H](CCC(=O)O)NC(=O)[C@H](Cc2ccccc2)NC(=O)[C@H](CC(N)=O)NC(=O)[C@H](Cc2ccccc2)NC(=O)CSC[C@@H](C(=O)NCC(N)=O)NC(=O)[C@@H]2CCCN2C(=O)[C@H](CCC(N)=O)NC(=O)[C@H](Cc2c[nH]c3ccccc23)NC(=O)[C@H]([C@@H](C)O)NC(=O)[C@H](CC(=O)O)NC(=O)[C@@H]1C
B7: Compound 79a (peptide)
peptide: {CH2CO}-FNFEDQSASTWQPCG-NH2
modifications: thioether N-14
SMILES: C[C@@H]1NC(=O)[C@H](CO)NC(=O)[C@H](CCC(N)=O)NC(=O)[C@H](CC(=O)O)NC(=O)[C@H](CCC(=O)O)NC(=O)[C@H](Cc2ccccc2)NC(=O)[C@H](CC(N)=O)NC(=O)[C@H](Cc2ccccc2)NC(=O)CSC[C@@H](C(=O)NCC(N)=O)NC(=O)[C@@H]2CCCN2C(=O)[C@H](CCC(N)=O)NC(=O)[C@H](Cc2c[nH]c3ccccc23)NC(=O)[C@H]([C@@H](C)O)NC(=O)[C@H](CO)NC1=O
B8: Compound 84a (peptide)
peptide: {CH2CO}-FNFEDQSAVTWQPCG-NH2
modifications: thioether N-14
SMILES: CC(C)[C@@H]1NC(=O)[C@H](C)NC(=O)[C@H](CO)NC(=O)[C@H](CCC(N)=O)NC(=O)[C@H](CC(=O)O)NC(=O)[C@H](CCC(=O)O)NC(=O)[C@H](Cc2ccccc2)NC(=O)[C@H](CC(N)=O)NC(=O)[C@H](Cc2ccccc2)NC(=O)CSC[C@@H](C(=O)NCC(N)=O)NC(=O)[C@@H]2CCCN2C(=O)[C@H](CCC(N)=O)NC(=O)[C@H](Cc2c[nH]c3ccccc23)NC(=O)[C@H]([C@@H](C)O)NC1=O
B9: Compound 78a (peptide)
peptide: {CH2CO}-FNFEDQSAFTWQPCG-NH2
modifications: thioether N-14
SMILES: C[C@@H]1NC(=O)[C@H](CO)NC(=O)[C@H](CCC(N)=O)NC(=O)[C@H](CC(=O)O)NC(=O)[C@H](CCC(=O)O)NC(=O)[C@H](Cc2ccccc2)NC(=O)[C@H](CC(N)=O)NC(=O)[C@H](Cc2ccccc2)NC(=O)CSC[C@@H](C(=O)NCC(N)=O)NC(=O)[C@@H]2CCCN2C(=O)[C@H](CCC(N)=O)NC(=O)[C@H](Cc2c[nH]c3ccccc23)NC(=O)[C@H]([C@@H](C)O)NC(=O)[C@H](Cc2ccccc2)NC1=O
B10: Compound 73a (peptide)
peptide: {CH2CO}-FNFEDQSAETWQPCG-NH2
modifications: thioether N-14
SMILES: C[C@@H]1NC(=O)[C@H](CO)NC(=O)[C@H](CCC(N)=O)NC(=O)[C@H](CC(=O)O)NC(=O)[C@H](CCC(=O)O)NC(=O)[C@H](Cc2ccccc2)NC(=O)[C@H](CC(N)=O)NC(=O)[C@H](Cc2ccccc2)NC(=O)CSC[C@@H](C(=O)NCC(N)=O)NC(=O)[C@@H]2CCCN2C(=O)[C@H](CCC(N)=O)NC(=O)[C@H](Cc2c[nH]c3ccccc23)NC(=O)[C@H]([C@@H](C)O)NC(=O)[C@H](CCC(=O)O)NC1=O
B11: Compound 81a (peptide)
peptide: {CH2CO}-FNFEDQSANTWQPCG-NH2
modifications: thioether N-14
SMILES: C[C@@H]1NC(=O)[C@H](CO)NC(=O)[C@H](CCC(N)=O)NC(=O)[C@H](CC(=O)O)NC(=O)[C@H](CCC(=O)O)NC(=O)[C@H](Cc2ccccc2)NC(=O)[C@H](CC(N)=O)NC(=O)[C@H](Cc2ccccc2)NC(=O)CSC[C@@H](C(=O)NCC(N)=O)NC(=O)[C@@H]2CCCN2C(=O)[C@H](CCC(N)=O)NC(=O)[C@H](Cc2c[nH]c3ccccc23)NC(=O)[C@H]([C@@H](C)O)NC(=O)[C@H](CC(N)=O)NC1=O

biological target: T1, human Granzyme B (human, UniProt P10144 21-247); assay: SPR, Biacore 8k+, hGranzyme B captured on SA chip, single cycle kinetics, 1:1 model
T1 construct: Captured on a Series S Streptavidin chip for SPR; also called hGranzyme B; GzmB
T1 sequence (P10144 21-247 limits assumed): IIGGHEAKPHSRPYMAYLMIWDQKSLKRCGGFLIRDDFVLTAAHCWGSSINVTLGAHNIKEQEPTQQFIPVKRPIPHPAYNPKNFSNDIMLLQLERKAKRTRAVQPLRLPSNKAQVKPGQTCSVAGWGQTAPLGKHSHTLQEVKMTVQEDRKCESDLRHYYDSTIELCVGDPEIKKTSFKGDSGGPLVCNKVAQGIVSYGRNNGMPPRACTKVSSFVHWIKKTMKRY
Experimental: The kinetics of test peptide binding to human Granzyme B (hGranzyme B) was determined by SPR. All experiments were performed at 25° C. using the Biacore 8k+ instrument (Cytiva, Marlborough, MA). The Biacore 8k+ Insight Evaluation Software Version 3.0 was used to fit the data with a 1:1 binding model to determine the association rate constant kₐ (M⁻¹s⁻¹, where “M” ~equals molar and “s” ~equals seconds) and the dissociation rate constant kd (s⁻¹). These rate constants were used to calculate the equilibrium dissociation constant. KD (M)=kd/kₐ.
To measure the binding kinetics of peptides of interest, surfaces were prepared by a capture method to a Series S Streptavidin (SA) chip using a 1×HBS-EP+ running buffer (Cytiva). hGranzyme B was diluted to 10 μg/mL in IX HBS-EP+ and flowed over spot 2 of each flow cell on the chip at a flow rate of 10 ul/min for 20 s to achieve a level of capture of ~1100 RU. An unmodified spot 1 of each flow cell was used as a matrix binding control or reference surface. Binding kinetics were measured using single cycle kinetics at 25° C. by injecting 5 concentrations with 3-fold serial dilutions of test peptides from 0.01 μM to 1 μM. Compound dilutions were performed manually in a running buffer containing 1×HBS-EP+(Cytiva), and a final concentration of 2% DMSO. The interaction analyses over hGranzyme B, were performed using a 120 s association time and a 900 s dissociation time. All experiments were conducted at a flow rate of 50 μL/min with a data collection rate of 10 Hz.
Peptide dilution series included 2 zero concentration points (no compound) which were averaged and subtracted from the peptide concentration injection as DMSO control responses. Binding data acquired from the reference surface (matrix binding control) were subtracted from the binding data for hGranzyme B surface on the chip to determine specific binding. Next, the association phase data were solvent corrected to account for any signal fluctuation throughout the experiment due to subtle DMSO concentration differences. Corrected response data were analyzed using the Biacore 8k+ Evaluation Software Version 3.0 according to the manufacturer. SPR data for representative compounds of the disclosure are found in Table 8.

For B1, which Kd is on record?
Its Kd is 18.5 nM.

How did the Kd turn out when B2 was run?
Its Kd is 45.8 nM.

How did the Kd turn out when B3 was run?
The Kd was 29.2 nM.

How did the Kd turn out when B4 was run?
The Kd was 38.8 nM.

Which Kd does the source give for B5 here?
The Kd was 23.9 nM.

How did the Kd turn out when B6 was run?
Its Kd is 20.2 nM.

B7 was tested. Which Kd did it give?
The Kd was 34.8 nM.

How did the Kd turn out when B8 was run?
Its Kd is 52.2 nM.

How did the Kd turn out when B9 was run?
Its Kd is 34.4 nM.

With B10 as the binder, how does the Kd read?
Its Kd is 21.3 nM.

How did the Kd turn out when B11 was run?
Its Kd is 43.4 nM.

— patent US20260207798A1, “CYCLIC PEPTIDES AS PET IMAGING AGENTS OF GRANZYME B” (priority 2022, published 2026)
